Assay results taken from US20230128075A1.

Assays:
[1] = target: HSP70 (antigen; source and nucleotide state not stated) (Homo sapiens (Human)) (UniProt P0DMV8); experiment: Octet epitope binning, sandwich format on HSP70; table row m77A (named as competitor), column N15F2-5; the sheet does not say which of row and column was loaded first
[2] = target: HSP70 (antigen; source and nucleotide state not stated) (Homo sapiens (Human)) (UniProt P0DMV8); experiment: Octet epitope binning, sandwich format on HSP70; table row N15F2-5, column N15F2-5 (self pair)
[3] = target: HSP70 (antigen; source and nucleotide state not stated) (Homo sapiens (Human)) (UniProt P0DMV8); experiment: Octet epitope binning, sandwich format on HSP70; table row C92F3-5 (named as competitor), column N15F2-5; the sheet does not say which of row and column was loaded first
[4] = target: HSP70 (antigen; source and nucleotide state not stated) (Homo sapiens (Human)) (UniProt P0DMV8); experiment: Octet epitope binning, sandwich format on HSP70; table row C92F3-5, column C92F3-5 (self pair)
[5] = target: HSP70 (antigen; source and nucleotide state not stated) (Homo sapiens (Human)) (UniProt P0DMV8); experiment: Octet epitope binning, sandwich format on HSP70; table row N15F2-5 (named as competitor), column C92F3-5; the sheet does not say which of row and column was loaded first
[6] = target: HSP70 (antigen; source and nucleotide state not stated) (Homo sapiens (Human)) (UniProt P0DMV8); experiment: Octet epitope binning, sandwich format on HSP70; table row m77A (named as competitor), column C92F3-5; the sheet does not say which of row and column was loaded first

HSP70 (antigen; source and nucleotide state not stated) (Homo sapiens (Human)), sequence (P0DMV8 whole entry): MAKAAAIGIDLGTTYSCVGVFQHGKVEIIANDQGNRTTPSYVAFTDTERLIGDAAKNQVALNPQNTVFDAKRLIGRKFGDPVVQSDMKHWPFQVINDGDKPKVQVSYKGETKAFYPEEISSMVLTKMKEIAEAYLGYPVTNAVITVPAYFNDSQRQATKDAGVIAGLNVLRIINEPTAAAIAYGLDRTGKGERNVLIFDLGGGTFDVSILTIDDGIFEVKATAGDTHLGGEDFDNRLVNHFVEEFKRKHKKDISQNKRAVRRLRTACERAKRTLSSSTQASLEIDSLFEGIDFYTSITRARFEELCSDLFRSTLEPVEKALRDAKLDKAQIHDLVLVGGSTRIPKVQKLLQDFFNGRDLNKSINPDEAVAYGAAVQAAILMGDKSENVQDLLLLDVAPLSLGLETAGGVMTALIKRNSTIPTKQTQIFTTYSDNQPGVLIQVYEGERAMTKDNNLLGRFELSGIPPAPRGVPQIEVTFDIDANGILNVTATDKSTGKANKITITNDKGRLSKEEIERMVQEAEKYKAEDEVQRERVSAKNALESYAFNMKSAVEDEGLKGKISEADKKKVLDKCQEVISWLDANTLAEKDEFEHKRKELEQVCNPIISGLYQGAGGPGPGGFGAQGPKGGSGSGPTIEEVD

percent of maximal binding in the presence of the potentially competing antibody [1] | percent of maximal binding in the presence of the potentially competing antibody [2] | percent of maximal binding in the presence of the potentially competing antibody [3] | percent of maximal binding in the presence of the potentially competing antibody [4] | percent of maximal binding in the presence of the potentially competing antibody [5] | percent of maximal binding in the presence of the potentially competing antibody [6] | Substance
0.738 | 0 | 0.489 | – | – | – | N15F2-5 (Enzo Life Sciences) (antibody)
– | – | – | 0 | 0.492 | 0.714 | C92F3-5 (Fisher Scientific) (antibody)
